Values quoted from earlier work in publication PMC5828769.

Assays:
[1] = target: angiogenin (Homo sapiens) (UniProt P03950)
[2] = target: actin (AngBP) (Bos taurus) (UniProt P60712)

UniProt P03950, sequence (P03950 25-147): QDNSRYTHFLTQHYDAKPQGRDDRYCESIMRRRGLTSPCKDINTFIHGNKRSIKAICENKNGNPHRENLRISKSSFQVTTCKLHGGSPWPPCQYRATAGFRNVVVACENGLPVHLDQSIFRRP

| Substance | Ki [1] | Kd [2] |
| --- | --- | --- |
| PRI (ribonuclease inhibitor) (from UniProt P13489) | < 0.001 pM |  |
| angiogenin (from UniProt P10152) |  | 500 pM |
